# Results reported in the Human Domainome abundance scans (Beltran et al. 2025).
# ± gives the uncertainty stated by the source.
# Assay: abundance fitness (aPCA) (normalised: wild type 0, dead -1); higher = more abundant; growth selection in yeast, the domain comes from the species named
# Settings: Homo sapiens
row,Substance,abundance fitness
1,"Transcriptional activator Myb T148N, P10242",-0.271 ± 0.043
2,"Transcriptional activator Myb R153C, P10242",-0.451 ± 0.098
3,"Transcriptional activator Myb E168N, P10242",-0.492 ± 0.17
4,"Transcriptional activator Myb K192D, P10242",-0.448 ± 0.21
5,"Transcriptional activator Myb A180M, P10242",-0.058 ± 0.16
6,"Transcriptional activator Myb R191P, P10242",0.047 ± 0.11
7,"Transcriptional activator Myb R153S, P10242",-0.121 ± 0.06
8,"Transcriptional activator Myb E201L, P10242",-0.158 ± 0.097
9,"Transcriptional activator Myb P174Y, P10242",-0.643 ± 0.12
10,"Transcriptional activator Myb K192V, P10242",-0.207 ± 0.074
11,"Transcriptional activator Myb N183W, P10242",-0.198 ± 0.084
12,"Transcriptional activator Myb E150F, P10242",-0.129 ± 0.16
13,"Transcriptional activator Myb I154M, P10242",-0.296 ± 0.085
14,"Transcriptional activator Myb T188E, P10242",0.016 ± 0.056
15,"Transcriptional activator Myb E151D, P10242",-0.348 ± 0.15
16,"Transcriptional activator Myb S187L, P10242",-0.019 ± 0.066
17,"Transcriptional activator Myb A167H, P10242",0.258 ± 0.24
18,"Transcriptional activator Myb D152G, P10242",-0.452 ± 0.053
19,"Transcriptional activator Myb A180P, P10242",-0.76 ± 0.12
20,"Transcriptional activator Myb I155R, P10242",-0.935 ± 0.067
21,"Transcriptional activator Myb E194N, P10242",-0.316 ± 0.36
22,"Transcriptional activator Myb G163W, P10242",-0.602 ± 0.084

row,Substance,abundance fitness
1,"Transcriptional activator Myb S187R, P10242",-0.054 ± 0.049
2,"Transcriptional activator Myb S202T, P10242",0.012 ± 0.11
3,"Transcriptional activator Myb G197D, P10242",-0.09 ± 0.13
4,"Transcriptional activator Myb T188W, P10242",-0.093 ± 0.054
5,"Transcriptional activator Myb S203C, P10242",-0.112 ± 0.094
6,"Transcriptional activator Myb T148W, P10242",-0.901 ± 0.058
7,"Transcriptional activator Myb R191K, P10242",-0.192 ± 0.12
8,"Transcriptional activator Myb A167P, P10242",0.037 ± 0.12
9,"Transcriptional activator Myb S203L, P10242",-0.042 ± 0.094
10,"Transcriptional activator Myb Y156W, P10242",-0.074 ± 0.046
11,"Transcriptional activator Myb A167Y, P10242",-0.172 ± 0.12
12,"Transcriptional activator Myb R176L, P10242",-0.423 ± 0.074
13,"Transcriptional activator Myb D152E, P10242",0.105 ± 0.077
14,"Transcriptional activator Myb A167K, P10242",-0.124 ± 0.11
15,"Transcriptional activator Myb M189V, P10242",-0.02 ± 0.064
16,"Transcriptional activator Myb G197I, P10242",-0.717 ± 0.24
17,"Transcriptional activator Myb M189F, P10242",-0.045 ± 0.16
18,"Transcriptional activator Myb P174R, P10242",-0.251 ± 0.052
19,"Transcriptional activator Myb K144A, P10242",-0.202 ± 0.099
20,"Transcriptional activator Myb E168P, P10242",-0.833 ± 0.13
21,"Transcriptional activator Myb Q157L, P10242",-0.081 ± 0.22
22,"Transcriptional activator Myb N179Q, P10242",-0.025 ± 0.078

row,Substance,abundance fitness
1,"Transcriptional activator Myb W147L, P10242",-0.434 ± 0.035
2,"Transcriptional activator Myb N186L, P10242",-0.016 ± 0.071
3,"Transcriptional activator Myb W185S, P10242",-0.648 ± 0.083
4,"Transcriptional activator Myb E201P, P10242",-0.221 ± 0.13
5,"Transcriptional activator Myb L173V, P10242",-0.127 ± 0.093
6,"Transcriptional activator Myb E196W, P10242",-0.151 ± 0.067
7,"Transcriptional activator Myb E151L, P10242",-0.482 ± 0.069
8,"Transcriptional activator Myb L172V, P10242",-0.36 ± 0.073
9,"Transcriptional activator Myb H184D, P10242",-0.82 ± 0.077
10,"Transcriptional activator Myb W166H, P10242",-0.455 ± 0.17
11,"Transcriptional activator Myb Y198S, P10242",0.025 ± 0.065
12,"Transcriptional activator Myb A170Y, P10242",-1.08 ± 0.18
13,"Transcriptional activator Myb H184Y, P10242",-0.001 ± 0.052
14,"Transcriptional activator Myb L199H, P10242",-0.228 ± 0.2
15,"Transcriptional activator Myb W185N, P10242",-0.55 ± 0.14
16,"Transcriptional activator Myb I155V, P10242",-0.187 ± 0.075
17,"Transcriptional activator Myb I154N, P10242",-1.14 ± 0.3
18,"Transcriptional activator Myb G163K, P10242",-0.405 ± 0.11
19,"Transcriptional activator Myb Q200T, P10242",-0.135 ± 0.072
20,"Transcriptional activator Myb A167E, P10242",0.009 ± 0.13
21,"Transcriptional activator Myb S146L, P10242",-0.299 ± 0.43
22,"Transcriptional activator Myb S146A, P10242",-0.233 ± 0.15

row,Substance,abundance fitness
1,"Transcriptional activator Myb G175L, P10242",-0.102 ± 0.077
2,"Transcriptional activator Myb K144Y, P10242",0.08 ± 0.16
3,"Transcriptional activator Myb V193C, P10242",-0.138 ± 0.15
4,"Transcriptional activator Myb K143A, P10242",0.049 ± 0.15
5,"Transcriptional activator Myb Q195W, P10242",-0.282 ± 0.14
6,"Transcriptional activator Myb E201R, P10242",-0.12 ± 0.066
7,"Transcriptional activator Myb A180T, P10242",-0.174 ± 0.078
8,"Transcriptional activator Myb T145F, P10242",-0.123 ± 0.25
9,"Transcriptional activator Myb E168F, P10242",-0.574 ± 0.12
10,"Transcriptional activator Myb T188L, P10242",-0.049 ± 0.053
11,"Transcriptional activator Myb L173A, P10242",-0.623 ± 0.11
12,"Transcriptional activator Myb D152H, P10242",-0.695 ± 0.22
13,"Transcriptional activator Myb N179W, P10242",-0.169 ± 0.066
14,"Transcriptional activator Myb Y156L, P10242",0.004 ± 0.047
15,"Transcriptional activator Myb E168Q, P10242",-0.182 ± 0.13
16,"Transcriptional activator Myb E168L, P10242",-0.419 ± 0.069
17,"Transcriptional activator Myb I169K, P10242",-1.05 ± 0.15
18,"Transcriptional activator Myb T188A, P10242",-0.107 ± 0.046
19,"Transcriptional activator Myb E196D, P10242",-0.056 ± 0.11
20,"Transcriptional activator Myb A170D, P10242",-0.692 ± 0.12
21,"Transcriptional activator Myb T188Y, P10242",0.034 ± 0.13
22,"Transcriptional activator Myb T177D, P10242",0.077 ± 0.095

row,Substance,abundance fitness
1,"Transcriptional activator Myb E196G, P10242",0.007 ± 0.057
2,"Transcriptional activator Myb I154Y, P10242",-0.65 ± 0.13
3,"Transcriptional activator Myb P174G, P10242",-0.462 ± 0.056
4,"Transcriptional activator Myb K182W, P10242",-0.184 ± 0.076
5,"Transcriptional activator Myb E194W, P10242",-0.152 ± 0.13
6,"Transcriptional activator Myb E150L, P10242",-0.17 ± 0.064
7,"Transcriptional activator Myb E168C, P10242",-0.464 ± 0.11
8,"Transcriptional activator Myb G163F, P10242",-0.89 ± 0.16
9,"Transcriptional activator Myb A167C, P10242",-0.17 ± 0.12
10,"Transcriptional activator Myb I155P, P10242",-0.945 ± 0.14
11,"Transcriptional activator Myb I155S, P10242",-0.916 ± 0.13
12,"Transcriptional activator Myb N183I, P10242",-0.022 ± 0.11
13,"Transcriptional activator Myb T177N, P10242",-0.038 ± 0.12
14,"Transcriptional activator Myb I169G, P10242",-0.681 ± 0.071
15,"Transcriptional activator Myb W147D, P10242",-0.699 ± 0.052
16,"Transcriptional activator Myb P174I, P10242",-0.339 ± 0.14
17,"Transcriptional activator Myb I181V, P10242",-0.036 ± 0.07
18,"Transcriptional activator Myb T145D, P10242",0.144 ± 0.15
19,"Transcriptional activator Myb R190S, P10242",-0.074 ± 0.065
20,"Transcriptional activator Myb W147I, P10242",-0.406 ± 0.043
